Assay results: patent publication US20250277037A1 (UNIVERSITY OF UTAH RESEARCH FOUNDATION, published 2025)

T1: mouse FcγRIV on RAW 264.7 macrophage cells (mouse, UniProt A0A0B4J1G0 21-249)
T1 construct: also called RAW 264.7 cells
T1 sequence: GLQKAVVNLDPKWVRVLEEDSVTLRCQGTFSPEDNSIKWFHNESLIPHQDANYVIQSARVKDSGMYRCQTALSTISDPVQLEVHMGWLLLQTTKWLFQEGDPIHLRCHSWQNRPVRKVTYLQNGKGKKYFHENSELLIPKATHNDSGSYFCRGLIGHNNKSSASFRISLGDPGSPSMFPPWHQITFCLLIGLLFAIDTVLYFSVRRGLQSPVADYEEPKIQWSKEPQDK

B1: D-αPD-1 (depleting anti-mouse PD-1 antibody; RMP1-14 variable domains on mouse IgG2a heavy and mouse κ light constant domains) (antibody)
heavy: EVQLQESGPGLVKPSQSLSLTCSVTGYSITSSYRWNWIRKFPGNRLEWMGYINSAGISNYNPSLKRRISITRDTSKNQFFLQVNSVTTEDAATYYCARSDNMGTTPFTYWGQGTLVTVSSAKTTAPSVYPLAPVCGDTTGSSVTLGCLVKGYFPEPVTLTWNSGSLSSGVHTFPAVLQSDLYTLSSSVTVTSSTWPSQSITCNVAHPASSTKVDKKIEPRGPTIKPCPPCKCPAPNLLGGPSVFIFPPKIKDVLMISLSPIVTCVVVDVSEDDPDVQISWFVNNVEVHTAQTQTHREDYNSTLRVVSALPIQHQDWMSGKEFKCKVNNKDLPAPIERTISKPKGSVRAPQVYVLPPPEEEMTKKQVTLTCMVTDFMPEDIYVEWTNNGKTELNYKNTEPVLDSDGSYFMYSKLRVEKKNWVERNSYSCSVVHEGLHNHHTTKSFSRTPGK
light: DIVMTQGTLPNPVPSGESVSITCRSSKSLLYSDGKTYLNWYLQRPGQSPQLLIYWMSTRASGVSDRFSGSGSGTDFTLKISGVEAEDVGIYYCQQGLEFPTFGGGTKLELKRADAAPTVSIFPPSSEQLTSGGASVVCFLNNFYPKDINVKWKIDGSERQNGVLNSWTDQDSKDSTYSMSSTLTLTKDEYERHNSYTCEATHKTSTSPIVKSFNRNEC
notes: also called anti-αPD-1 antibody; anti-PD-1 antibody 1

Assays:
[1] = target: mouse FcγRIV on RAW 264.7 macrophage cells (mouse); assay: competition, flow cytometry on RAW 264.7 cells; 25 and 250 µg/mL, not concentration-dependent; competitor PE anti-mouse FcγRIV (9E9)
[2] = target: mouse FcγRIV on RAW 264.7 macrophage cells (mouse); assay: competition by flow cytometry on RAW 264.7 cells: preincubation with the antibody at 4 °C for 30 min, then staining with PE anti-mouse FcγRIV (clone 9E9); inhibition relative to cells without antibody
[3] = target: mouse FcγRIV on RAW 264.7 macrophage cells (mouse); assay: flow cytometry, Alexa-647-labelled antibody at 4 µg/mL on RAW 264.7 cells, 4 °C 30 min (medium control 188.3)
[4] = target: mouse PD-1 (programmed death-1, CD279) on EL4 cells (mouse) (UniProt Q02242); assay: flow cytometry on PD-1+ EL4 cells, incubation on ice (4 °C) for 30 min, detection with PE anti-mouse IgG2a; medium control without antibody given as 70.0
mouse PD-1 (programmed death-1, CD279) on EL4 cells (mouse), sequence (Q02242 25-288): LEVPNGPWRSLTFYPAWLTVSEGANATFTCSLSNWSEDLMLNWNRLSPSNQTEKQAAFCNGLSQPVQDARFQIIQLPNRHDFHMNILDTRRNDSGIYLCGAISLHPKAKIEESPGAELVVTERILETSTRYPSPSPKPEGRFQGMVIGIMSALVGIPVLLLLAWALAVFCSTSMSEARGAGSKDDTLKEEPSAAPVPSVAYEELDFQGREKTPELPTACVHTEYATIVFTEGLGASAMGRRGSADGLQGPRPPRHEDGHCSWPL

[5] = target: T1, mouse FcγRIV on RAW 264.7 macrophage …; assay: flow cytometry, Alexa-647-labelled antibody at 4 µg/mL on RAW 264.7 cells, 4 °C 30 min; reference: cells in the medium control
Protocol: ADCP was the next mechanism that was investigated. Before evaluating D-αPD-1-mediated ADCP by macrophages, the binding between D-αPD-1 and macrophages was investigated since the binding is the prerequisite of ADCP. Here, RAW 264.7 cells were incubated with Alexa-647-labeled D-αPD-1, isotype control, or the medium control. Then, the bound antibodies were analyzed by flow cytometry (FIG. 5A).

| Molecule | percent inhibition of anti-mouse FcγRIV antibody binding [1] | Inhibition (%) at 25 µg/mL [2] | Inhibition (%) at 250 µg/mL [2] | also measured |
| --- | --- | --- | --- | --- |
| B-αPD-1 (anti-mouse PD-1 blocking antibody, clone RMP1-14, a rat IgG) | 10% | 10.5% | 6.7% |  |
| goat IgG control (antibody) | 10% | 4% | 4.3% |  |
| mouse IgG2a isotype control (antibody) |  |  |  | MFI [3]: 213 MFI; MFI at 0.1 µg/mL [4]: 95.4; MFI at 1 µg/mL [4]: 125; MFI at 10 µg/mL [4]: 433 |
| B1 |  |  |  | fold MFI over medium control [5]: ~3 fold |
